System: CC1(C)[C@@H](O[C@H]2O[C@H](C(=O)O)[C@@H](O)[C@H](O)[C@H]2O[C@@H]2O[C@H](C(=O)O)[C@@H](O)[C@H](O)[C@H]2O)CC[C@]2(C)[C@H]3C(=O)C=C4[C@@H]5C[C@@](C)(C(=O)O)CC[C@]5(C)CC[C@@]4(C)[C@]3(C)CC[C@@H]12
Assay: purified protein
Conditions: GL 0.375 to 4 mM, assay pH and temperature not stated for kinetics (optimum pH 6.6, 55 °C)

Work on “AtGUS-E (AtGUS) (Aspergillus terreus NIH2624)” yielded a Km of 12.9 mM, a Vmax of 1.84 µmol/min/mg and a kcat of 29 s⁻¹. For the same substance, the kcat/Km was 2240 M⁻¹ s⁻¹.

From article PMC3274521, “Effects of a Non-Conservative Sequence on the Properties of β-glucuronidase from Aspergillus terreus Li-20” (PLoS ONE, 2012)
